According to patent US20080207488A1 (published 2008):
Values belong to the binder of their own block, whether it stands above or below them. Ends that are not written are not given here.

B2: endostatin (EntreMed) (other, UniProt P39060 1572-1754, looked up)
chain: HSHRDFQPVLHLVALNSPLSGGMRGIRGADFQCFQQARAVGLAGTFRAFLSSRLQDLYSIVRRADRAAVPIVNLKDELLFPSWEALFSGSEGPLKPGARIFSFDGKDVLRHPTWPQKSVWHGSDPNGRRLTESYCETWRTEAPSATGQASSLLGGRLLGQSAASCHHAYIVLCIENSFMTASK
notes: also called protein therapeutic endostatin
B3: abciximab (ReoPro) (Fab, V domains shown)
VH: EVQLQQSGTVLARPGASVKMSCEASGYTFTNYWMHWVKQRPGQGLEWIGAIYPGNSDTSYIQKFKGKAKLTAVTSTTSVYMELSSLTNEDSAVYYCTLYDGYYVFAYWGQGTLVTVSA
VL: EIVLTQSPVTLSVTPGDSVSLSCRASRDISNNLHWFQQTSHESPRLLIKYASQSMSGIPSRFSGSGSGTDFTLSINSVETEDFGMYFCQQTNSWPYTFGGGTKLEIK
B4: recombinant human β2-glycoprotein I (other, UniProt P02749 20-345, looked up)
chain: GRTCPKPDDLPFSTVVPLKTFYEPGEEITYSCKPGYVSRGGMRKFICPLTGLWPINTLKCTPRVCPFAGILENGAVRYTTFEYPNTISFSCNTGFYLNGADSAKCTEEGKWSPELPVCAPIICPPPSIPTFATLRVYKPSAGNNSLYRDTAVFECLPQHAMFGNDTITCTTHGNWTKLPECREVKCPFPSRPDNGFVNYPAKPTLYYKDKATFGCHDGYSLDGPEEIECTKLGNWSAMPSCKASCKVPVKKATVVYQGERVKIQEKFKNGMLHGDKVSFFCKNKEKKCSYTEDAQCIDGTIEVPKCFKEHSSLAFWKTDASDVKPC
notes: also called recombinant β2GPI; rec. β2GPI
B5: tissue-type plasminogen activator (tPA) (enzyme, human, UniProt P00750 36-562, looked up)
chain: SYQVICRDEKTQMIYQQHQSWLRPVLRSNRVEYCWCNSGRAQCHSVPVKSCSEPRCFNGGTCQQALYFSDFVCQCPEGFAGKCCEIDTRATCYEDQGISYRGTWSTAESGAECTNWNSSALAQKPYSGRRPDAIRLGLGNHNYCRNPDRDSKPWCYVFKAGKYSSEFCSTPACSEGNSDCYFGNGSAYRGTHSLTESGASCLPWNSMILIGKVYTAQNPSAQALGLGKHNYCRNPDGDAKPWCHVLKNRRLTWEYCDVPSCSTCGLRQYSQPQFRIKGGLFADIASHPWQAAIFAKHRRSPGERFLCGGILISSCWILSAAHCFQERFPPHHLTVILGRTYRVVPGEEEQKFEVEKYIVHKEFDDDTYDNDIALLQLKSDSSRCAQESSVVRTVCLPPADLQLPDWTECELSGYGKHEALSPFYSERLKEAHVRLYPSSRCTSQHLLNRTVTDNMLCAGDTRSGGPQANLHDACQGDSGGPLVCLNDGRMTLVGIISWGLGCGQKDVPGVYTKVTNYLDWIRDNMRP
notes: Full-length recombinant tPA; also called Actilyse; Alteplase

Legend:
endostatin (EntreMed) [1] = target: B2; test: SPR (Biacore), tPA F immobilized on CM5 chip
Procedure: (§1) Now, the running buffer was 10 mM HEPES pH 7.4, 140 mM NaCl, 1.5 mM CaCl₂, 10 mM εACA, 0.05% Tween-20. Regeneration buffer was running buffer supplemented with 1 M NaCl.

[2] = target: B4; test: SPR (Biacore), tPA F immobilized on CM5 chip
Procedure: as §1

[3] = target: T1, fibronectin F4-5 domains with carboxy-terminal His6-tag, expressed in S. cerevisiae (Fn F4-5-His6) (human, UniProt P02751 182-276); test: SPR (Biacore), Fn F4-5 on CM5 chip, concentration of ligand at half maximum binding
T1 construct: range 182-276; also called Fn F4-5 doublet
Procedure: as §1

[4] = target: B5; test: cell-based or functional assay
[5] = target: B5; test: ELISA, therapeutic coated, tPA concentration series, one-site binding fit
Procedure: (§2) Nunc Immobilizer plates (Nalge Nunc, #436013, Rochester, N.Y., USA) were coated with 50 μL containing 5 μg/mL of sample protein (unless indicated otherwise) in 100 mM NaHCO₃, pH 9.6, 0.05% m/v NaN₃ for 1 hour at room temperature. Plates were washed twice with Tris buffered saline pH 7.2 containing 0.1% Tween20 (TBST) and blocked with PBS containing 1% Tween20 for 1 hour at room temperature. […] Plates were washed five times with TBST and incubated with peroxidase labeled anti-mouse immunoglobulins (RAMPO; DAKOCytomation, Glostrup, Denmark) diluted 1:3000 in PBST for 30 minutes at room temperature. Plates were washed five times with PBS 0.1% Tween20, and stained with 100 μL/well of tetramethyl-benzidine (TMB) substrate (Biosource Europe, Nivelles, Belgium). The reaction was terminated with 50 μL/well of 2 M H₂SO₄ and substrate conversion was read at 450 nm on a Spectramax340 microplate reader. Curves were fitted with a one-site binding model (GraphPad Prism version 4.02 for Windows, Graphpad Software, CA, USA) from which Kd and Bmax were determined.

[6] = target: B5; test: ELISA, tPA immobilized, β2GPI concentration series
Procedure: (§3) Binding of β₂GPI was assessed with monoclonal antibody 2B2¹³.
(§4) C. […] D. Western blot incubated with anti-human factor XII antibody. […] Eluted fractions are analyzed on Western blot after SDS-PA electrophoresis. […] The molecular mass of factor XII is 80 kDa. […] Anti-β₂GPI auto-antibodies were purified from plasma of patients with the auto-immune disease Anti-phospholipid syndrome. […] Signals are corrected for background fluorescence of CL, DXS, ThT and buffer.

[7] = target: T2, factor XII purified from human plasma (human, UniProt P00748 20-615); test: ELISA, factor XII coated, β2GPI concentration series, antibody 2B2
T2 construct: mature; also called FXII
T2 sequence (looked up): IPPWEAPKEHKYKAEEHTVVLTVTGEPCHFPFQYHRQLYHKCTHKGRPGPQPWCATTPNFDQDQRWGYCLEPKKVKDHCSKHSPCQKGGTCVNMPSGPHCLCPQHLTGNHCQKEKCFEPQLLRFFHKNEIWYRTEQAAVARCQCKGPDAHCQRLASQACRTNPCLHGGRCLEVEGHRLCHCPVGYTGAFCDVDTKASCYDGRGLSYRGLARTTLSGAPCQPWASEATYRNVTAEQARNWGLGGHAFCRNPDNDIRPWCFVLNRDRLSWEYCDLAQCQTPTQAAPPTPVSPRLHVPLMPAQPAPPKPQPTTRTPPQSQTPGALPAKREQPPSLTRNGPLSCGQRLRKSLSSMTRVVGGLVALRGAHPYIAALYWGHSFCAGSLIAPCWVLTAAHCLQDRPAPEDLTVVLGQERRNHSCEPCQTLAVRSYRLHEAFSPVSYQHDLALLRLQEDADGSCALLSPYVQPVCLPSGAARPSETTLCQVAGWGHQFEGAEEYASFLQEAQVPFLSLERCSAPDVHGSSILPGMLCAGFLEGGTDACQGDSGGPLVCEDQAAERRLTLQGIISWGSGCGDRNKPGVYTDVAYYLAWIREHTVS
Procedure: as §3, §4

[8] = target: T2, factor XII purified from human plasma; test: ELISA, factor XII immobilized, β2GPI concentration series
Procedure: as §3, §4

[9] = target: B5; test: ELISA, tPA coated, β2GPI concentration series, antibody 2B2
Procedure: as §3, §4

[10] = target: T3, advanced glycation end-product modified bovine serum albumin (albumin-AGE) (bovine, UniProt P02769 25-607, glycated (advanced glycation end-products; 1 M glucose-6-phosphate, 37 °C, up to 23 weeks); sites not stated); test: SPR (Biacore), immobilized tPA
T3 construct: Misfolded, cross-β structure containing preparation; also called BSA-AGE; glycated BSA
Procedure: EDC, NHS and ethanolamine hydrochloride were obtained from Biacore. […] The flow rate was 10 μl min.⁻¹, the injection time was 120″. The running buffer during immobilization was 10 mM HEPES pH 7.4, 140 mM NaCl. Buffers were filtrated on a 0.22 μm filter (white GSWP, 47 mm, Millipore) and degassed at room temperature. For subsequent binding experiments, the running buffer was 10 mM HEPES pH 7.4, 140 mM NaCl, 1.5 mM CaCl₂, 10 mM εACA, 0.005% Tween-20. […] After each injection of protein, the chip was regenerated with 0.1 M H₃PO₄ pH 1.0.

abciximab (ReoPro) = target: B3; test: ELISA, therapeutic coated, tPA concentration series, one-site binding fit
Procedure: as §2

[11] = target: T4, recombinant human Zn2+-chelated insulin (Monotard) (human, UniProt P01308 90-110; P01308 25-54); test: as above
T4 construct: mature; Zinc suspension; also called zinc-insulin; zinc-chelated insulin
Procedure: as §2

[12] = target: T5, rapid acting human insulin analogue (NovoRapid Flexpen) (human, UniProt P01308 90-110; P01308 25-54); test: as above
T5 construct: mature; also called Insulin Aspart; Novo Rapid insulin
Procedure: as §2

human albumin (Cealb) = target: T6, human albumin (Cealb) (human, UniProt P02768 25-609); test: as above
T6 construct: mature
Procedure: as §2

endostatin (EntreMed) [13] = target: B2; test: SPR (Biacore), HGFA F immobilized on CM5 chip
Procedure: as §1

[14] = target: B4; test: SPR (Biacore), HGFA F immobilized on CM5 chip
Procedure: as §1

T1 sequence (P02751 other isoform, or with tags, fused parts or gaps limits assumed): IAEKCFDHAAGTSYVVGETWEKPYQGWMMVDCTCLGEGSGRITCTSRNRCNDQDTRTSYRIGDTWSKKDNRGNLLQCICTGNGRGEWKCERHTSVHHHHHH
T3 sequence (P02769 25-607 limits assumed): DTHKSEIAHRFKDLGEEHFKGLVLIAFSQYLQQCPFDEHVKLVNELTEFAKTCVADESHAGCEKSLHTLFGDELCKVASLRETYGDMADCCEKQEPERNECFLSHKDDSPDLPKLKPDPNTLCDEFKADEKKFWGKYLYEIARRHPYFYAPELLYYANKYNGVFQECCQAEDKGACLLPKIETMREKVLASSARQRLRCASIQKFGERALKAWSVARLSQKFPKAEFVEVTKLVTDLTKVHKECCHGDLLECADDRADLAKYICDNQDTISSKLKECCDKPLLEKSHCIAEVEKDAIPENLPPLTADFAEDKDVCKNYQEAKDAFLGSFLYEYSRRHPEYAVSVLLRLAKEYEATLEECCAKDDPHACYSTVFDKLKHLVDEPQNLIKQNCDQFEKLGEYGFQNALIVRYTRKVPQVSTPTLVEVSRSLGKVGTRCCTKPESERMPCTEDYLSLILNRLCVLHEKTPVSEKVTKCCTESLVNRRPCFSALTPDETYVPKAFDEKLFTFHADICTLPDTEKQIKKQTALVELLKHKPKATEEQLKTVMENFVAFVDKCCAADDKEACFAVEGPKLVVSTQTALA

- binding result (endostatin (EntreMed) [1]): no binding (tested: 0-800 nM)
- binding result [2]: no binding (tested: 0-300 nM)
B1: chemically synthesized F domain of tPA (tPA F) (other, human)
chain: VICRDEKTQMIYQQHQSWLRPVLRSNRVEYCWCNSGRAQCHSVK
modifications: cysteine pairing not given here; also: added C-terminal Lys acetylated or biotinylated
notes: domain: F domain; Immobilized on the second Biacore chip; also called tPA F domain

Binder: B2
- EC50 [3]: 800 nM

Binder: B3
- tPA activation, Max. Activation (%) [4]: 0%
- Kd [5]: 216 nM

Binder: B4
- Kd [6]: 2.3 µg/mL
- Kd [7]: 20 nM
- EC50 [3]: 165 nM
- Kd [8]: 0.9 µg/mL
- Kd [9]: 51 nM

Binder: B5
- binding result [10]: binds
- Bmax (OD450 nm) (abciximab (ReoPro)): 0.533 OD450 nm
- Bmax (OD450 nm) [11]: 0.756 OD450 nm
- Bmax (OD450 nm) [12]: 3.62 OD450 nm
- Bmax (OD450 nm) (human albumin (Cealb)): 1.23 OD450 nm

- binding result (endostatin (EntreMed) [13]): no binding (tested: 0-800 nM)
- binding result [14]: no binding (tested: 0-300 nM)
B6: chemically synthesized F domain of hepatocyte growth factor activator (HGFA F) (other)
chain: EKCFDETRYEYLEGGDRWARVRQGHVEQCECFGGRTWCEGTK
modifications: added carboxy-terminal lysine residue is acetylated
notes: domain: F domain; Made by native chemical ligation of two peptides; also called HGFA F domain
